{"source": "patent CN111138530A", "about": "(INST MILITARY MEDICINE ACADEMY MILITARY SCIENCES PLA, dated 2020)", "binders": {"B1": {"name": "抗埃博拉病毒糖蛋白GP1亚基的单克隆抗体5E9 (antibody, V domains shown)", "VH": "EVQLLESGGGLVKPGGSLRLSCVASGFTFTNAWMNWVRQAPGKGLEWVGRIKSKTDSGTTDYAAPVNGRFTISRDDSKNTLYLQMNSLKTEDTAVYYCTTRYQYNGMDVWGQGTTVTVSS", "VL": "QPVLTQPPSVSGAPGQRVTISCTGRSSNIGAGYDVHWYQHLPGTAPKLLIYANTNRPSGVPDRFSGSKSGTSASLAITGLQPGDEADYYCQSYDSRLSDHVVFGGGTKLTVLG"}}, "key": {"GP 95-295": {"molecular_target": "GP 95-295 (Ebola virus (EBOV), UniProt Q05320 95-295)", "test": "ELISA on coated truncated GP"}, "sGP": {"molecular_target": "sGP (Ebola virus (EBOV), UniProt Q05320 33-295)", "test": "ELISA on coated truncated GP"}, "GP1": {"molecular_target": "GP1 (Ebola virus (EBOV), UniProt Q05320 33-501)", "test": "ELISA on coated truncated GP"}, "EBOV GP": {"molecular_target": "T1, EBOV GP (Ebola virus (EBOV), UniProt Q05320 33-650)", "T1 sequence": "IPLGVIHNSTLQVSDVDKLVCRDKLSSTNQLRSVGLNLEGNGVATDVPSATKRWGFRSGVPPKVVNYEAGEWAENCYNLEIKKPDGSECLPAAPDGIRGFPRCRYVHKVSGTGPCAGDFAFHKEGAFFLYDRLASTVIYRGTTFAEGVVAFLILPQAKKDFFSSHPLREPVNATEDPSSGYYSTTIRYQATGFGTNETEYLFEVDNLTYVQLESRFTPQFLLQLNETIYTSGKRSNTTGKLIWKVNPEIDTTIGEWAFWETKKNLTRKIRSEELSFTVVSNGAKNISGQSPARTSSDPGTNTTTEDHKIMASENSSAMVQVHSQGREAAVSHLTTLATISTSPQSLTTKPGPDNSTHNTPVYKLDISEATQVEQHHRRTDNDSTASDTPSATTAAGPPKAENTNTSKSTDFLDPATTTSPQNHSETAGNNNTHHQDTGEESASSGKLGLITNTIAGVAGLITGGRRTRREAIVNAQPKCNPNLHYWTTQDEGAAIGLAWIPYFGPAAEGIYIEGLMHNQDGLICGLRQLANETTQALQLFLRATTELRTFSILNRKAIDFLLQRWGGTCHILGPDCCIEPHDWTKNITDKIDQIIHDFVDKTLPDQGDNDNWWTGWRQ", "test": "ELISA, coated GP 1 μg/mL, antibody titrated from 10 μg/mL"}, "SUDV GP": {"molecular_target": "T2, SUDV GP (SUDV, UniProt Q7T9D9 33-650)", "T2 sequence": "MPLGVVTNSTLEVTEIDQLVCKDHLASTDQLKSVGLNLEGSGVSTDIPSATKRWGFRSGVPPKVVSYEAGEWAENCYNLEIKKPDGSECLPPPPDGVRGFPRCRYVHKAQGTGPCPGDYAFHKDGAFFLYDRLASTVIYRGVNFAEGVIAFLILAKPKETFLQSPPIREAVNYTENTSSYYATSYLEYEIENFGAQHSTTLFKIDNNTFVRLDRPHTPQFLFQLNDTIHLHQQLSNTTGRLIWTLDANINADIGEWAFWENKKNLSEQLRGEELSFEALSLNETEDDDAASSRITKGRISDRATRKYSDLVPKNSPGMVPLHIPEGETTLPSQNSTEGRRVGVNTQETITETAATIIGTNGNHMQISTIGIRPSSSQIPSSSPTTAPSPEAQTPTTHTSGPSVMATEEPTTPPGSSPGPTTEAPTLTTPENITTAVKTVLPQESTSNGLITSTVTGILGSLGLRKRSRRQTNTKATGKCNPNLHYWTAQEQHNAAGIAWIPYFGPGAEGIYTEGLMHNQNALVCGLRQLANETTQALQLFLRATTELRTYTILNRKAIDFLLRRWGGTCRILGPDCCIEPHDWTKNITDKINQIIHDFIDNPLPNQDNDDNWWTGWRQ", "test": "ELISA, coated GP 1 μg/mL, antibody titrated from 10 μg/mL"}, "RESTV GP": {"molecular_target": "T3, RESTV GP (RESTV, UniProt Q66799 34-651)", "T3 sequence": "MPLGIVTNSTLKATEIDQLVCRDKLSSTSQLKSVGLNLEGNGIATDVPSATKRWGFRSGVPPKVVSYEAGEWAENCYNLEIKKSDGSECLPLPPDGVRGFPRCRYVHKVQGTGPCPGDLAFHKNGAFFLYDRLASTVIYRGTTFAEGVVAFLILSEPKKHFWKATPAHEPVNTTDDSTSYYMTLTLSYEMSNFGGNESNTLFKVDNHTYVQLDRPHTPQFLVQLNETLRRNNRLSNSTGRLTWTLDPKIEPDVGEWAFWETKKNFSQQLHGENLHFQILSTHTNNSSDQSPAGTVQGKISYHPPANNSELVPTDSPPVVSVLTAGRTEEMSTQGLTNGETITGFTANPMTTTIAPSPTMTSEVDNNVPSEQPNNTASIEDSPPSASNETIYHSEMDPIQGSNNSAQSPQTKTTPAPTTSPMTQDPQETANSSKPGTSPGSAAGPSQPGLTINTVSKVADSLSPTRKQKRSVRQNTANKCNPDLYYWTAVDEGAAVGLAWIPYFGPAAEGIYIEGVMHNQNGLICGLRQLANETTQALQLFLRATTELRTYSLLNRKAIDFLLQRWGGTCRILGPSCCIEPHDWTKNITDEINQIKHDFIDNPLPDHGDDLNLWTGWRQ", "test": "ELISA, coated GP 1 μg/mL, antibody titrated from 10 μg/mL"}}}
{"binder": "B1", "values": [{"measurement": "EC50", "setting": "GP 95-295", "value": 11.8, "unit": "ng/mL"}, {"measurement": "EC50", "setting": "sGP", "value": 5, "unit": "ng/mL"}, {"measurement": "EC50", "setting": "GP1", "value": 4.1, "unit": "ng/mL"}, {"measurement": "EC50", "setting": "EBOV GP", "value": 6, "unit": "ng/mL"}, {"measurement": "EC50", "setting": "SUDV GP", "value": "> 1000", "unit": "ng/mL"}, {"measurement": "EC50", "setting": "RESTV GP", "value": 149, "unit": "ng/mL"}]}
